# Data from patent US20200157146A1.
# Target: HLA-A2 (human)
# Assay: T2 cells without peptide stained with MA2.1 mAb, flow cytometry (baseline of the stabilization assay)
substance,measurement,value
MA2.1 mAb (antibody),mean channel fluorescence,90
